Source: patent US20170051041A1

Legend:
Test in all cases: SPR single-cycle kinetics; reference WT-FVIII-C2
[1] = molecular target: FVIII-C2 mutein F2200A (human) (UniProt P00451)
[2] = molecular target: FVIII-C2 mutein E2228A (human) (UniProt P00451)
[3] = molecular target: FVIII-C2 mutein H2315A (human) (UniProt P00451)
[4] = molecular target: FVIII-C2 mutein L2252A (human) (UniProt P00451)
[5] = molecular target: FVIII-C2 mutein Q2316A (human) (UniProt P00451)
[6] = molecular target: FVIII-C2 mutein S2254A (human) (UniProt P00451)
[7] = molecular target: FVIII-C2 mutein R2220A (human) (UniProt P00451)

Chain of Fab fragment of human anti-FVIII mAb BO2C11 (VH): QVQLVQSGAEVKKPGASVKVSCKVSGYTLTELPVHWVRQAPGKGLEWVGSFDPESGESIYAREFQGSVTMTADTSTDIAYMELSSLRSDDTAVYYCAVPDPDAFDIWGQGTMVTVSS
Chain of Fab fragment of human anti-FVIII mAb BO2C11 (VL): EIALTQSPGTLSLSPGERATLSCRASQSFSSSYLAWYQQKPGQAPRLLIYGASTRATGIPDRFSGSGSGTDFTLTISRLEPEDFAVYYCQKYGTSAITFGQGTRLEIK
Chain of UniProt P00451 (P00451 2189-2351 F2219A): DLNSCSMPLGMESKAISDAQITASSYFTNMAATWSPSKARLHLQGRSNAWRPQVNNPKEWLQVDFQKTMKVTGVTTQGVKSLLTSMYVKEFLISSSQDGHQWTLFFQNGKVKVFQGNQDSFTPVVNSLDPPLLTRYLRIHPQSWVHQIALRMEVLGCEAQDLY

Substance | kd(mutein)/kd(WT) [1] [fold] | kd(mutein)/kd(WT) [7] [fold] | other results
Fab fragment of human anti-FVIII mAb BO2C11 | > 2 | – | –
Murine anti-FVIII C2 domain mAb 1B5 (GMA-8008) (antibody) | > 2 | – | kd(mutein)/kd(WT) [2]: > 2 fold; kd(mutein)/kd(WT) [3]: > 2 fold; kd(mutein)/kd(WT) [4]: > 2 fold; kd(mutein)/kd(WT) [5]: > 2 fold; kd(mutein)/kd(WT) [6]: > 2 fold
Murine anti-FVIII C2 domain mAb 2-117 (GMA-8003) (antibody) | – | 3 | –
Murine anti-FVIII C2 domain mAb 3D12 (antibody) | > 2 | – | –
Murine anti-FVIII C2 domain mAb ESH4 (antibody) | – | 2.7 | –
Murine anti-FVIII C2 domain mAb ESH8 (antibody) | – | 4.5 | –
Murine anti-FVIII C2 domain mAb I109 (antibody) | > 2 | – | –
